The subject of assay [1] is hLPL bound to immobilized heparan sulfate. As to the kind of experiment: GPIHBP1-mediated extraction of LPL from HSPGs (SPR, immobilized heparin dp4 fragments). It counts as binding, human. The text has this: To mimic electrostatic conditions found in the sub-endothelial spaces where surface-bound heparan-sulfate proteoglycans (HSPGs) are abundant, we designed a surrogate sensor surface using a streptavidin-coated CM5 sensor chip to capture high densities of biotinylated synthetic heparin dp4 fragments ([28], [29]). The reference surface was loaded with a neutral and non-sulfated fragment (M09 S00 from Iduron), while the active surface was loaded with a negatively charged fragment (M09 S08a from Iduron) containing N- and O-6-linked sulfations on each of the […] glucosamine residues in the DP4 fragment. Only the highly sulfated oligosaccharide bound LPL, and those interactions were transient with high off-rates. Despite the very transient nature of this binding, we created a stable reservoir of hLPL on the sensor surface by combining the fast kinetics of polyelectrolyte interactions with severe mass transport limitation—the latter phenomenon impedes LPL escape from the surface due to the fast rebinding that is favored by the high densities of immobilized heparin fragments (300 fmol/mm^2). For each experiment, 12.5 nM hLPL was loaded for 100 s at a flow rate of 20 μl/min in 10 mM Hepes (pH 7.4), 150 mM NaCl, 4 mM CaCl2, 10% (vol/vol) glycerol, 0.05% (vol/vol) surfactant P20, 1 mg/ml defatted BSA, […], and 0.05% (wt/vol) NaN3.
To compare the ability of GPIHBP1^1–131 and its charge variants to bind and extract hLPL from this dynamic reservoir, we injected twofold serial dilutions of 1.25–200 nM GPIHBP1^1–131; 1.25–200 nM GPIHBP1^Cluster1-neutral; GPIHBP1^Cluster2-neutral; 1.25–200 nM GPIHBP1^34–131; 0.1–1.6 μM GPIHBP1^1–33 with Tyr^18–SO4; or 1.25–200 nM GPIHBP1^34–131 in the presence of 1 μM sulfated GPIHBP1^1–33 for 250 s at 20 μl/min in 10 mM Hepes (pH 7.4), 150 mM NaCl, 4 mM CaCl2, 10% (vol/vol) glycerol, 0.05% (vol/vol) surfactant P20, 0.2 mg/ml fatty acid-free BSA, and 0.05% (wt/vol) NaN3. At the end of each cycle, two consecutive injections of 10 μl 3 M guanidinium chloride regenerated the chip.
GPIHBP1’s ability to displace LPL from its HSPG-bound state in the sub-endothelial spaces is essential for the trans-endothelial trafficking of LPL to the luminal surface of capillary cells ([29]). The importance of the acidic tail in this process is supported by solid evidence from surrogate in vitro models and in vivo studies in gene-edited mice ([28], [29]). It was therefore important to determine the relative impact of the two charge-clusters in GPIHBP1 on their ability to disrupt LPL•HSPG interactions. To gain this insight, we measured the ability of different GPIHBP1 charge variants to displace hLPL from a SPR sensor chip surface coupled with a high density of immobilized small heparin-like fragments ([28]). […]

The test system of assay [2] is mouse LPL. As to the kind of experiment: Native PAGE binding to mouse LPL. To be noted: 4 µM LPL with 18 µM GPIHBP1, 30 min on ice; Coomassie staining. Here is the method: Distinct impacts of disordered acidic clusters in GPIHBP1
To confirm interactions between puri fi ed human GPIHBP11–131, G P IH B P 1 Cluster1-neutral, or GPIHBP1 Cluster2-neutral with human, mouse, and bovine LPL, these protein pairs were incubated for 30 min on ice (4 µM LPL with 18 µM GPIHBP1) before they were analyzed by native PAGE. As th ese concentrations were well above t he K D of 0.2 nM for the wildtype LPL•GPIHBP1 interaction, LPL is saturated with GPIHBP1 in these experiments (1). […]
spect r a for the purified GPIHBP1 variants wer e r ecor ded at 25°C in Helman cuvettes (path- length of 1 mm) with a scan rate of 50 nm/ min c ove r i ng the range of 190- 250 nm, averaging three scans for each protein. Spectra for the pr ote i ns were compared after converting to molar ellipticity using the following equation, […] where, Mw is the molecular weight of the protein, c is the protein concentration in g/l, l is the pat h-length of the cuvette, Nr number of amino acid residues in the protein.
Figure S1 : Binding of GPIHBP1 charge mutants to LPL as assessed by Native PAGE. The electrophoretic mobility of GPIHBP1 variants alone or in presence of purified human LPL ( A), b ovine LPL (B), and murine LPL (C) was assessed by native PAGE followed by Coomassie blue staining. […]

B1: GPIHBP1^Cluster2-neutral: GPIHBP1 mutant with all Glu/Asp replaced by Gln/Asn at residues 19–30 (protein)
chain: QTQQEEEEEDEDHGPDDYNQQNQNQVQQQQTNRLPGGGSRVLLRCYTCKSLPRDERCNLTQNCSHGQTCTTLIAHGNTESGLLTTHSTWCTDSCQPITKTVEGTQVTMTCCQSSLCNVPPWQSSRVQDPTG
modifications: Tyr18 sulfation absent; one bi-antennary N-linked glycosylation; left off: uPAR domain III, N-terminal, cleaved
For B1, the “competitive displacement of HSPG-bound hLPL (in words)” value in assay [1] (12.5–200 nM GPIHBP1 proteins, 0.1–1.6 μM sulfated GPIHBP1^1–33, or GPIHBP1^34–131 with 1 μM sulfated GPIHBP1^1–33) is “neither dislodged any LPL from the surface”. Moreover, the “binding to mLPL as judged by native PAGE” value in assay [2] was “bound”.

B2: GPIHBP1^Cluster1-neutral: GPIHBP1 mutant with all Glu/Asp replaced by Gln/Asn at residues 1–17 (protein)
chain: QTQQQQQQQNQNHGPNNYDEEDEDEVEEEETNRLPGGGSRVLLRCYTCKSLPRDERCNLTQNCSHGQTCTTLIAHGNTESGLLTTHSTWCTDSCQPITKTVEGTQVTMTCCQSSLCNVPPWQSSRVQDPTG
modifications: Tyr18 sulfation present in less than 40%; one bi-antennary N-linked glycosylation; left off: uPAR domain III, N-terminal, cleaved
As for B2, in assay [1] (serial twofold dilutions 12.5–200 nM, 250 s at 20 μl/min, pH 7.4, mean ± SD, n = 3), the “reduction in hLPL levels on the sensor surface after GPIHBP1 injections (ΔLPL, displaced LPL)” value is recorded as 35%. The “binding to mLPL as judged by native PAGE” value in assay [2] is “bound”.

For the origin of these results see PMC11869522, “Competitive displacement of lipoprotein lipase from heparan sulfate is orchestrated by a disordered acidic cluster in GPIHBP1” (Journal of Lipid Research, 2025).
